In this experiment the target is mink ryanodine receptor type 3 (RyR3) (mink). In words: cryo-EM structure.

The text below walks through data of PMC11452665.

Usually stoichiometry N stands for a count of units in the complex or per binding partner.

Turning to “mink ryanodine receptor type 3 (RyR3) (natural protein)”, the stoichiometry N is 4.
